# Data published in patent publication US20060177918.
# Test system: Myelin Basic Protein (Upstate USA, Inc. cat. no: 13-104)
row,Substance,increase in fluorescence over time (real-time kinase assay)
1,"MAP kinase2/Erk2 (Upstate USA, Inc.)",greater than 4 fold increase in fluorescence over time
2,"MAP kinase1/Erk1 (Upstate USA, Inc.)",greater than 4 fold increase in fluorescence over time
3,"PKCβII (Upstate USA, Inc.)",greater than 4 fold increase in fluorescence over time
